Source: article PMC9595563 (2022)

Target: SARS-CoV-2 spike RBD-Fc recombinant protein (ELISA) (SARS-CoV-2, UniProt P0DTC2)
Assay: ELISA

B1: LRRC15-His (natural protein)
chain: YHGCPSECTCSRASQVECTGARIVAVPTPLPWNAMSLQILNTHITELNESPFLNISALIALRIEKNELSRITPGAFRNLGSLRYLSLANNKLQVLPIGLFQGLDSLESLLLSSNQLLQIQPAHFSQCSNLKELQLHGNHLEYIPDGAFDHLVGLTKLNLGKNSLTHISPRVFQHLGNLQVLRLYENRLTDIPMGTFDGLVNLQELALQQNQIGLLSPGLFHNNHNLQRLYLSNNHISQLPPSVFMQLPQLNRLTLFGNSLKELSPGIFGPMPNLRELWLYDNHISSLPDNVFSNLRQLQVLILSRNQISFISPGAFNGLTELRELSLHTNALQDLDGNVFRMLANLQNISLQNNRLRQLPGNIFANVNGLMAIQLQNNQLENLPLGIFDHLGKLCELRLYDNPWRCDSDILPLRNWLLLNQPRLGTDTVPVCFSPANVRGQSLIIINVNVAVPSVHVPEVPSYPETPWYPDTPSYPDTTSVSSTTELTSPVEDYTDLTTIQVTDDRSVWGMTQAQSG
In the case of B1, the Kd is reported as 165 nM.
